This note sets out measurements from patent US7326418B2, “Identification of novel factors that block programmed cell death or apoptosis by targeting JNK” (University of Chicago, priority 2001, dated 2008).

For this experiment, the target named is T1, ASK1 (Homo sapiens, UniProt Q99683).
T1 sequence (Q99683 1-1374): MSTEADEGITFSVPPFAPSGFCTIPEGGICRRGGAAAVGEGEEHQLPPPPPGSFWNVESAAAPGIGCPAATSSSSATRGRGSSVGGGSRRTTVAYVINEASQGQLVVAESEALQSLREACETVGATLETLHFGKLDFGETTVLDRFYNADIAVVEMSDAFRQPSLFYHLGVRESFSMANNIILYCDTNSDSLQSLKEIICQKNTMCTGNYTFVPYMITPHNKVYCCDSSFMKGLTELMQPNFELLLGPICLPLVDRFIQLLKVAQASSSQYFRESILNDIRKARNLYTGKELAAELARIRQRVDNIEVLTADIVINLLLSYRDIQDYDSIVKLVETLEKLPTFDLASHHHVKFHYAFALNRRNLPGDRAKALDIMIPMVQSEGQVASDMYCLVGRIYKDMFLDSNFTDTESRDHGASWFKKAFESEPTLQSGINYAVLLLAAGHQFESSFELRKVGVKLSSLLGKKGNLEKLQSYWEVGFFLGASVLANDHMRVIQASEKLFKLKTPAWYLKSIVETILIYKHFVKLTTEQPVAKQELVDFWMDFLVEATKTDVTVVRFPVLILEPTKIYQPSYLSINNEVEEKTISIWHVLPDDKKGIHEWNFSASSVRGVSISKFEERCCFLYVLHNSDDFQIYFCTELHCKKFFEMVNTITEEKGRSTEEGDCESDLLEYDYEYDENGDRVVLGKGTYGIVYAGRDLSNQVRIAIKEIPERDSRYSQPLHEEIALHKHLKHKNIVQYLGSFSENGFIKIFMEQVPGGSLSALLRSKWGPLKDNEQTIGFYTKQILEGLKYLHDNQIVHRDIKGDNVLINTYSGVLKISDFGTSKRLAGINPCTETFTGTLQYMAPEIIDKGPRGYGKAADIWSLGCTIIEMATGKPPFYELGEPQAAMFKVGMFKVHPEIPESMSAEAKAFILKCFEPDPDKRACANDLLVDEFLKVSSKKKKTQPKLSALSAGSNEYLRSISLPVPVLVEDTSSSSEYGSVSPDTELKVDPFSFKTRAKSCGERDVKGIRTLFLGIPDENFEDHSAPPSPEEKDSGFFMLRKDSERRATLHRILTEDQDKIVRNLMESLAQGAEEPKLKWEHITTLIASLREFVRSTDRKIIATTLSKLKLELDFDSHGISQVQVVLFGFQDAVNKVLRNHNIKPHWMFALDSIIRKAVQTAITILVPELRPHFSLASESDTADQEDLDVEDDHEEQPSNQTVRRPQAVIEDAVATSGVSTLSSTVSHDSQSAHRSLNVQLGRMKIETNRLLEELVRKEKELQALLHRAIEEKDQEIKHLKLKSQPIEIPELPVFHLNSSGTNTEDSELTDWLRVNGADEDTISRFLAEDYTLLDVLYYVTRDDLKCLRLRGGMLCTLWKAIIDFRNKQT
Nature of the experiment: GST pull-down, GST-Gadd45β beads with in vitro translated 35S-labeled ASK1. The class given is binding. Also noted: plasmids encoding full-length (FL) human ASK1, MEKK4, JNKK1, and JNKK2; made in house; host or cells: TNT coupled reticulocyte lysate (Promega), in vitro transcription/translation from pBS. The method, then:
To confirm the above interactions, in vitro, GST pull-down experiments were performed. pBluescript (pBS) plasmids encoding full-length (FL) human ASK1, MEKK4, JNKK1, and JNKK2, or polypeptides derived from the amino- or carboxy-terminal portions of ASK1 (i.e. N-ASK1, spanning from amino acids 1 to 756, and C-ASK1, spanning from amino acids 648 to 1375) were transcribed and translated in vitro using the TNT coupled retyculocyte lysate system (Promega) in the presence of ^35S-methionine. 5 μl of each translation mix were incubated, in vitro, with sepharose-4B beads that had been coated with either purified glutathione-S-transferase (GST) polypeptides or GST-Gadd45β proteins. The latter proteins contained FL murine Gadd45β directly fused to GST. Binding assays were performed according to standard procedures, and ^35S-labeled proteins that bound to beads, as well as 2 μl of each in vitro translation mix (input), were then resolved by SDS polyacrylamide gel electrophoresis. Asterisks indicate the intact translated products. […] Thus, GST pull-down experiments confirmed the strong interaction between Gadd45β and JNKK2 observed in vivo, as well as the weaker interactions of Gadd45β with other kinases in the JNK pathway. These assays also uncovered a weak association between Gadd45β and JNKK1. […]

B1: GST-Gadd45β: full-length murine Gadd45β directly fused to GST, purified from E. coli (protein)
chain: MTLEELVASDNAVQKMQAVTAAVEQLLVAAQRQDRLTVGVYEAAKLMNVDPDSVVLCLLAIDEEEEDDIALQIHFTLIQSFCCDNDIDIVRVSGMQRLAQLLGEPAETLGTTEARDLHCLLVTNCHTDSWKSQGLVEVASYCEESRGNNQWVPYISLEER
modifications: left off: a dimerising Fc or GST
notes: full-length murine Gadd45β directly fused to GST, purified from E. coli
B1: the “association with ASK1” value is on record as “less avidly than with JNKK2”.
